Results on three substances are retold here after article PMC9561678.

In the experiment the target is phosphorylated JAK2 (UniProt O60674). Kind of experiment: co-immunoprecipitation (IP p-JAK2, IB c-Mpl) with densitometry. The note with it: HEK293T cells; 20 ng/mL TPO stimulation; parent: est. 1.3; read off a plot.
Sequence of UniProt O60674 (O60674 whole entry): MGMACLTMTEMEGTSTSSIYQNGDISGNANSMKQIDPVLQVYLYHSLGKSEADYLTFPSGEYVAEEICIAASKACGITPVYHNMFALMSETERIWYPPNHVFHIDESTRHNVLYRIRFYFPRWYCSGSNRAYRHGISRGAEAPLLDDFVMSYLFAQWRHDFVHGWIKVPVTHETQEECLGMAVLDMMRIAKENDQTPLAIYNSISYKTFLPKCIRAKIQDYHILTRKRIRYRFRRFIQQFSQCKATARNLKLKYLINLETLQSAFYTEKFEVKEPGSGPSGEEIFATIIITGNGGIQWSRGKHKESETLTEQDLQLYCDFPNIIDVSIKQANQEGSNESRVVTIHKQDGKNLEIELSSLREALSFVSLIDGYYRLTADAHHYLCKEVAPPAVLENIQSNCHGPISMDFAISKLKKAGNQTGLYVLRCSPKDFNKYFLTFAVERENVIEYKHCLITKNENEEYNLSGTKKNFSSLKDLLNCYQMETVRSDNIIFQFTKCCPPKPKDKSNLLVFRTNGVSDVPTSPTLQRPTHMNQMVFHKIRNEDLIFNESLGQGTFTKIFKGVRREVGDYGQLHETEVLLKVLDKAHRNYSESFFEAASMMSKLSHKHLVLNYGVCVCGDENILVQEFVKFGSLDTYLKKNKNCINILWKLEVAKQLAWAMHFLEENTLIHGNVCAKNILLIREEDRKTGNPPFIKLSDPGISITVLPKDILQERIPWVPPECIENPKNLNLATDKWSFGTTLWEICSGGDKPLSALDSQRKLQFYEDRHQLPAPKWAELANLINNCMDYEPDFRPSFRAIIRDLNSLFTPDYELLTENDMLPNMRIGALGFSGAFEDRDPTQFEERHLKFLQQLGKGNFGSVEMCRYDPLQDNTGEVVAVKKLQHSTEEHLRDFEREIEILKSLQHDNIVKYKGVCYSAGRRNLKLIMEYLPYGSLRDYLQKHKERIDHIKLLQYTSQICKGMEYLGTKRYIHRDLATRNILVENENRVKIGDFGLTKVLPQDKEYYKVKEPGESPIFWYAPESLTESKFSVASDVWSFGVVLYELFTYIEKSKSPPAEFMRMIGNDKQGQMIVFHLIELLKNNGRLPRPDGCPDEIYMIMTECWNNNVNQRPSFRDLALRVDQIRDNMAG

As for “c-Mpl-del (c-Mpl alternative splicing isoform with a 24 amino acid deletion in the extracellular region) Y567F”, the response is 0.54.

In the case of “c-Mpl-del (c-Mpl alternative splicing isoform with a 24 amino acid deletion in the extracellular region) Y602F”, the response stood at 0.44.

Consider “c-Mpl-del (c-Mpl alternative splicing isoform with a 24 amino acid deletion in the extracellular region) Y607F”, for which the response was found to be 0.18.
